Measured values taken from IntAct's records for PubMed 16615911.

B1: E3 ubiquitin-protein ligase SIAH1A (Mus musculus), P61092 (parent)
chain: MSRQTATALPTGTSKCPPSQRVPALTGTTASNNDLASLFECPVCFDYVLPPILQCQSGHLVCSNCRPKLTCCPTCRGPLGSIRNLAMEKVANSVLFPCKYASSGCEITLPHTEKAEHEELCEFRPYSCPCPGASCKWQGSLDAVMPHLMHQHKSITTLQGEDIVFLATDINLPGAVDWVMMQSCFGFHFMLVLEKQEKYDGHQQFFAIVQLIGTRKQAENFAYRLELNGHRRRLTWEATPRSIHEGIATAIMNSDCLVFDTSIAQLFAENGNLGINVTISMC
partner: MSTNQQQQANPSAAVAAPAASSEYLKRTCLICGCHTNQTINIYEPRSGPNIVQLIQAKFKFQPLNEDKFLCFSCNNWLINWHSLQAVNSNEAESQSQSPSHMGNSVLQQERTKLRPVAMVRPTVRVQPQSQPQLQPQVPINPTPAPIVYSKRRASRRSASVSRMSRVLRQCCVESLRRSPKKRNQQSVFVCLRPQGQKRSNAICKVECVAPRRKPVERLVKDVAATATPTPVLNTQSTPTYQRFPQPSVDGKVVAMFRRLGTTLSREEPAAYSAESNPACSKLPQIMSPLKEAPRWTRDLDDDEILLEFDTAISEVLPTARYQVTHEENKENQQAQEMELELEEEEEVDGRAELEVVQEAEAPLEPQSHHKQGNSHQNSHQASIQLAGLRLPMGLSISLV

Variants of: B1
Conditions: with phyl_drome phyl

Row | effect of a mutation on the interaction | Variant
1 | disrupting interaction | M180K
2 | disrupting interaction strength | L158D
